Test results: patent publication US20110177504A1

Target: murine LY6C polypeptide on YAMC cells (murine) (UniProt P0CW02)
Test: cell-based or functional assay

Sequence of UniProt P0CW02 (P0CW02 27-109 limits assumed): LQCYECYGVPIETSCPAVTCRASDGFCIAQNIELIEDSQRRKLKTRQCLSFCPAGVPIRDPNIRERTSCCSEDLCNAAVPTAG

CCL2 mRNA, quantitative RT-PCR, YAMC cells on plate-bound antibody 24 h, IFN pre-treatment: 16.1 fold change
CCL2 mRNA, quantitative RT-PCR, YAMC cells on plate-bound antibody 24 h, Media pre-treatment: 8.81 fold change
CCL4 mRNA, quantitative RT-PCR, YAMC cells on plate-bound antibody 24 h, IFN pre-treatment: 16.1 fold change
CCL4 mRNA, quantitative RT-PCR, YAMC cells on plate-bound antibody 24 h, Media pre-treatment: 3.15 fold change
CCL5 mRNA, quantitative RT-PCR, YAMC cells on plate-bound antibody 24 h, IFN pre-treatment: 10.1 fold change
CCL5 mRNA, quantitative RT-PCR, YAMC cells on plate-bound antibody 24 h, Media pre-treatment: 3.31 fold change
CCL7 mRNA, quantitative RT-PCR, YAMC cells on plate-bound antibody 24 h, IFN pre-treatment: 5.81 fold change
CCL7 mRNA, quantitative RT-PCR, YAMC cells on plate-bound antibody 24 h, Media pre-treatment: 3.37 fold change
CCL8 mRNA, quantitative RT-PCR, YAMC cells on plate-bound antibody 24 h, IFN pre-treatment: 110 fold change
CCL8 mRNA, quantitative RT-PCR, YAMC cells on plate-bound antibody 24 h, Media pre-treatment: 12.8 fold change
CCL25 mRNA, quantitative RT-PCR, YAMC cells on plate-bound antibody 24 h, IFN pre-treatment: 1.46 fold change
CCL25 mRNA, quantitative RT-PCR, YAMC cells on plate-bound antibody 24 h, Media pre-treatment: 1.16 fold change
CXCL1 mRNA, quantitative RT-PCR, YAMC cells on plate-bound antibody 24 h, IFN pre-treatment: 13.4 fold change
CXCL1 mRNA, quantitative RT-PCR, YAMC cells on plate-bound antibody 24 h, Media pre-treatment: 11.6 fold change
CXCL2 mRNA, quantitative RT-PCR, YAMC cells on plate-bound antibody 24 h, IFN pre-treatment: 113 fold change
CXCL2 mRNA, quantitative RT-PCR, YAMC cells on plate-bound antibody 24 h, Media pre-treatment: 21.8 fold change
CXCL5 mRNA, quantitative RT-PCR, YAMC cells on plate-bound antibody 24 h, IFN pre-treatment: 151 fold change
CXCL5 mRNA, quantitative RT-PCR, YAMC cells on plate-bound antibody 24 h, Media pre-treatment: 118 fold change
CXCL10 mRNA, quantitative RT-PCR, YAMC cells on plate-bound antibody 24 h, IFN pre-treatment: 12.2 fold change
CXCL10 mRNA, quantitative RT-PCR, YAMC cells on plate-bound antibody 24 h, Media pre-treatment: 5.11 fold change
CXCL12 mRNA, quantitative RT-PCR, YAMC cells on plate-bound antibody 24 h, IFN pre-treatment: -3.02 fold change
CXCL12 mRNA, quantitative RT-PCR, YAMC cells on plate-bound antibody 24 h, Media pre-treatment: -1.99 fold change
lowest coating concentration of antibody giving detectable CXCL5 secretion, ELISA: 1 µg/mL
Substance: Anti-LY6C (clone HK1.4), Southern Biotech (antibody)
